Blank lines part the entries; values can stand above or below the binder they belong to. Numbered stars: 1 amine (or outer) side, 2 acyl side, 3 side chain; on linkers, the order of the positions; unused ones are H or OH. Bridge positions count the residues as written; N and C are the ends. Side chains are listed from the residue outwards. Ends that are not written are not given here. * marks the point of attachment. C20 diacid = O=C(O)CCCCCCCCCCCCCCCCCCC(=O)*; γGlu = O=C(O)[C@H](CCC(=O)[*:2])N[*:1]
How the values were obtained:
[1] = target: T1, rat amylin receptor (rat calcitonin receptor + rat RAMP 3) (rat, UniProt P32214 25-516; Q9JJ73 23-147); test: SPA competition vs 125I-rat amylin, membranes (Assay VI)
T1 construct: whole, on cells; Membranes prepared from transiently transfected BHK tk'ts 13 cells; also called rAmylin-R; rat amylin 3(a) receptor
T1 sequence (looked up) 1: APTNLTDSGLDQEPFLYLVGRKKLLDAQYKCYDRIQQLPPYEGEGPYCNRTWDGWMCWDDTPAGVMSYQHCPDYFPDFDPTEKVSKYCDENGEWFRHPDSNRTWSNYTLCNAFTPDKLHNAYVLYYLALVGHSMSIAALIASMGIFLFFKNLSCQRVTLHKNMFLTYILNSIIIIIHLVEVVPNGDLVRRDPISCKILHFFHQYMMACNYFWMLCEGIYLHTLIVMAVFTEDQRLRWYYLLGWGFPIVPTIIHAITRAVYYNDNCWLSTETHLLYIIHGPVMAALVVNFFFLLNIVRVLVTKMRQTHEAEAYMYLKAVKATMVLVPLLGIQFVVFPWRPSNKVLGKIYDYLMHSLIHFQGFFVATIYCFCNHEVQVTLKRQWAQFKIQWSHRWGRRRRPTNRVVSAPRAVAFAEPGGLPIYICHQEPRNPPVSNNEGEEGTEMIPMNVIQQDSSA
T1 sequence (looked up) 2: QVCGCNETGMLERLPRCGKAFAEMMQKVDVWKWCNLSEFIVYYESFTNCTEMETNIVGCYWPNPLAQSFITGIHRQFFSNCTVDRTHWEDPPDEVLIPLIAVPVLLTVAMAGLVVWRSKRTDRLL

rat calcitonin receptor [2] = target: T2, rat calcitonin receptor (rat, UniProt P32214 25-516); test: SPA competition vs 125I-calcitonin, membranes (Assay VIII)
T2 construct: whole, on cells; Membranes prepared from transiently transfected BHK tk'ts 13 cells; also called rCTR; rat calcitonin (a) receptor
T2 sequence (looked up): T1 sequence (looked up) 1

rat calcitonin receptor [3] = target: T2, rat calcitonin receptor; test: ratio of IC50 on rat calcitonin receptor to IC50 on rat amylin receptor
[4] = target: T3, human calcitonin receptor (human, UniProt P30988 25-474); test: ratio of IC50 on human calcitonin receptor to IC50 on human amylin receptor
T3 construct: whole, on cells; Membranes from stably transfected BHK cells; also called hCTR; hCT
T3 sequence (looked up): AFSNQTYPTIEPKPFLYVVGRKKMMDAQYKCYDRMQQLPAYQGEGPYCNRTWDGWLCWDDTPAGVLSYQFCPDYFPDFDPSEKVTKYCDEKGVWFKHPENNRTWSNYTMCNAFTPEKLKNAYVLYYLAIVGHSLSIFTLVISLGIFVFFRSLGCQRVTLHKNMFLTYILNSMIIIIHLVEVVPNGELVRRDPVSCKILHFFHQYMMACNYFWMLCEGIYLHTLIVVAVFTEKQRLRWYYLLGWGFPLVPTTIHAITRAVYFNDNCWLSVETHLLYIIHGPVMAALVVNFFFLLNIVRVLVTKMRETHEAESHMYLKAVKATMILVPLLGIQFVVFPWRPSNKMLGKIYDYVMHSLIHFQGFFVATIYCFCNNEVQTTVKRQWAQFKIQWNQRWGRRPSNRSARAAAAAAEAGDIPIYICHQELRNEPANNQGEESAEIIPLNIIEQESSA
Outline: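 IC₅₀ values were derived by one-site competition analysis of SPA counts. Cell membranes (35 ng/μL) with SPA beads were incubated with test compounds for 120 min at 25° C in Hepes buffer, pH 7.4, containing CaCl2, MgCl₂, OA and Tween20.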

B4: N^ε1-[(4S)-4-carboxy-4-[[(4S)-4-carboxy-4-(19-carboxynonadecanoylamino)butanoyl]amino]butanoyl]-[Glu14,Arg17,Pro21,Pro27,Pro34,Arg35]-h-amylin (peptide)
peptide: K([γGlu-γGlu-C20 diacid])CNTATCATQRLAEFLRHSSPNFGAIPSSTNVGPRTY-NH2
modifications: disulfide 2-7; N-terminus assumed
SMILES: CC[C@H](C)[C@H](NC(=O)[C@H](C)NC(=O)CNC(=O)[C@H](Cc1ccccc1)NC(=O)[C@H](CC(N)=O)NC(=O)[C@@H]1CCCN1C(=O)[C@H](CO)NC(=O)[C@H](CO)NC(=O)[C@H](Cc1c[nH]cn1)NC(=O)[C@H](CCCNC(=N)N)NC(=O)[C@H](CC(C)C)NC(=O)[C@H](Cc1ccccc1)NC(=O)[C@H](CCC(=O)O)NC(=O)[C@H](C)NC(=O)[C@H](CC(C)C)NC(=O)[C@H](CCCNC(=N)N)NC(=O)[C@H](CCC(N)=O)NC(=O)[C@@H](NC(=O)[C@H](C)NC(=O)[C@@H]1CSSC[C@H](NC(=O)[C@@H](N)CCCCNC(=O)CC[C@H](NC(=O)CC[C@H](NC(=O)CCCCCCCCCCCCCCCCCCC(=O)O)C(=O)O)C(=O)O)C(=O)N[C@@H](CC(N)=O)C(=O)N[C@@H]([C@@H](C)O)C(=O)N[C@@H](C)C(=O)N[C@@H]([C@@H](C)O)C(=O)N1)[C@@H](C)O)C(=O)N1CCC[C@H]1C(=O)N[C@@H](CO)C(=O)N[C@@H](CO)C(=O)N[C@H](C(=O)N[C@@H](CC(N)=O)C(=O)N[C@H](C(=O)NCC(=O)N1CCC[C@H]1C(=O)N[C@@H](CCCNC(=N)N)C(=O)N[C@H](C(=O)N[C@@H](Cc1ccc(O)cc1)C(N)=O)[C@@H](C)O)C(C)C)[C@@H](C)O
notes: also called compound 110
- IC50 [1]: 0.339 nM
- IC50 (rat calcitonin receptor [2]): 38.3 nM
- Ratio rCT/rAmylin binding (rat calcitonin receptor [3]): 113
- Ratio hCT/hAmylin binding [4]: 53.6

Binder: K([γGlu-γGlu-C20 diacid])CNTATCATQRLADFLRHSSPNFGAIPSSTNVGPETY-NH2 (disulfide 2-7)
- IC50 [1]: 0.324 nM
- IC50 (rat calcitonin receptor [2]): 31.9 nM
- Ratio rCT/rAmylin binding (rat calcitonin receptor [3]): 98.5
- Ratio hCT/hAmylin binding [4]: 49.8

Binder: K([γGlu-γGlu-C20 diacid])CNTATCATQRLADFLRHSSPNFGAIPSSTNVGPRTY-NH2 (disulfide 2-7, also called compound 130)
- IC50 [1]: 0.93 nM
- IC50 (rat calcitonin receptor [2]): 223 nM
- Ratio rCT/rAmylin binding (rat calcitonin receptor [3]): 240
- Ratio hCT/hAmylin binding [4]: 280

The remaining binders from weak to strong by IC50 [1], led by results:

- IC50 [1]: 3.14 nM
- IC50 (rat calcitonin receptor [2]): 498 nM
- Ratio rCT/rAmylin binding (rat calcitonin receptor [3]): 159
- Ratio hCT/hAmylin binding [4]: 29.1
B3: N^ε1-[(4S)-4-carboxy-4-[[(4S)-4-carboxy-4-(19-carboxynonadecanoylamino)butanoyl]amino]butanoyl]-[Glu14,Arg17,Pro21,Pro27,His34,Glu35]-h-amylin (peptide)
peptide: K([γGlu-γGlu-C20 diacid])CNTATCATQRLAEFLRHSSPNFGAIPSSTNVGHETY-NH2
modifications: disulfide 2-7; N-terminus assumed
SMILES: CC[C@H](C)[C@H](NC(=O)[C@H](C)NC(=O)CNC(=O)[C@H](Cc1ccccc1)NC(=O)[C@H](CC(N)=O)NC(=O)[C@@H]1CCCN1C(=O)[C@H](CO)NC(=O)[C@H](CO)NC(=O)[C@H](Cc1c[nH]cn1)NC(=O)[C@H](CCCNC(=N)N)NC(=O)[C@H](CC(C)C)NC(=O)[C@H](Cc1ccccc1)NC(=O)[C@H](CCC(=O)O)NC(=O)[C@H](C)NC(=O)[C@H](CC(C)C)NC(=O)[C@H](CCCNC(=N)N)NC(=O)[C@H](CCC(N)=O)NC(=O)[C@@H](NC(=O)[C@H](C)NC(=O)[C@@H]1CSSC[C@H](NC(=O)[C@@H](N)CCCCNC(=O)CC[C@H](NC(=O)CC[C@H](NC(=O)CCCCCCCCCCCCCCCCCCC(=O)O)C(=O)O)C(=O)O)C(=O)N[C@@H](CC(N)=O)C(=O)N[C@@H]([C@@H](C)O)C(=O)N[C@@H](C)C(=O)N[C@@H]([C@@H](C)O)C(=O)N1)[C@@H](C)O)C(=O)N1CCC[C@H]1C(=O)N[C@@H](CO)C(=O)N[C@@H](CO)C(=O)N[C@H](C(=O)N[C@@H](CC(N)=O)C(=O)N[C@H](C(=O)NCC(=O)N[C@@H](Cc1c[nH]cn1)C(=O)N[C@@H](CCC(=O)O)C(=O)N[C@H](C(=O)N[C@@H](Cc1ccc(O)cc1)C(N)=O)[C@@H](C)O)C(C)C)[C@@H](C)O

- IC50 [1]: 2.86 nM
- IC50 (rat calcitonin receptor [2]): 452 nM
- Ratio rCT/rAmylin binding (rat calcitonin receptor [3]): 158
- Ratio hCT/hAmylin binding [4]: 14.7
B2: N^ε1-[(4S)-4-carboxy-4-[[(4S)-4-carboxy-4-(19-carboxynonadecanoylamino)butanoyl]amino]butanoyl]-[Glu14,Arg17,Pro21,Pro27,Arg34,Glu35]-h-amylin (peptide)
peptide: K([γGlu-γGlu-C20 diacid])CNTATCATQRLAEFLRHSSPNFGAIPSSTNVGRETY-NH2
modifications: disulfide 2-7; N-terminus assumed
SMILES: CC[C@H](C)[C@H](NC(=O)[C@H](C)NC(=O)CNC(=O)[C@H](Cc1ccccc1)NC(=O)[C@H](CC(N)=O)NC(=O)[C@@H]1CCCN1C(=O)[C@H](CO)NC(=O)[C@H](CO)NC(=O)[C@H](Cc1c[nH]cn1)NC(=O)[C@H](CCCNC(=N)N)NC(=O)[C@H](CC(C)C)NC(=O)[C@H](Cc1ccccc1)NC(=O)[C@H](CCC(=O)O)NC(=O)[C@H](C)NC(=O)[C@H](CC(C)C)NC(=O)[C@H](CCCNC(=N)N)NC(=O)[C@H](CCC(N)=O)NC(=O)[C@@H](NC(=O)[C@H](C)NC(=O)[C@@H]1CSSC[C@H](NC(=O)[C@@H](N)CCCCNC(=O)CC[C@H](NC(=O)CC[C@H](NC(=O)CCCCCCCCCCCCCCCCCCC(=O)O)C(=O)O)C(=O)O)C(=O)N[C@@H](CC(N)=O)C(=O)N[C@@H]([C@@H](C)O)C(=O)N[C@@H](C)C(=O)N[C@@H]([C@@H](C)O)C(=O)N1)[C@@H](C)O)C(=O)N1CCC[C@H]1C(=O)N[C@@H](CO)C(=O)N[C@@H](CO)C(=O)N[C@H](C(=O)N[C@@H](CC(N)=O)C(=O)N[C@H](C(=O)NCC(=O)N[C@@H](CCCNC(=N)N)C(=O)N[C@@H](CCC(=O)O)C(=O)N[C@H](C(=O)N[C@@H](Cc1ccc(O)cc1)C(N)=O)[C@@H](C)O)C(C)C)[C@@H](C)O

- IC50 [1]: 0.381 nM
- IC50 (rat calcitonin receptor [2]): 52.4 nM
- Ratio rCT/rAmylin binding (rat calcitonin receptor [3]): 137
- Ratio hCT/hAmylin binding [4]: 48.6
B1: N^ε1-[(4S)-4-carboxy-4-[[(4S)-4-carboxy-4-(19-carboxynonadecanoylamino)butanoyl]amino]butanoyl]-[Arg17,Pro21,Pro27,Pro31,Pro34,Arg35]-h-amylin (peptide)
peptide: K([γGlu-γGlu-C20 diacid])CNTATCATQRLANFLRHSSPNFGAIPSSTPVGPRTY-NH2
modifications: disulfide 2-7; N-terminus assumed
SMILES: CC[C@H](C)[C@H](NC(=O)[C@H](C)NC(=O)CNC(=O)[C@H](Cc1ccccc1)NC(=O)[C@H](CC(N)=O)NC(=O)[C@@H]1CCCN1C(=O)[C@H](CO)NC(=O)[C@H](CO)NC(=O)[C@H](Cc1c[nH]cn1)NC(=O)[C@H](CCCNC(=N)N)NC(=O)[C@H](CC(C)C)NC(=O)[C@H](Cc1ccccc1)NC(=O)[C@H](CC(N)=O)NC(=O)[C@H](C)NC(=O)[C@H](CC(C)C)NC(=O)[C@H](CCCNC(=N)N)NC(=O)[C@H](CCC(N)=O)NC(=O)[C@@H](NC(=O)[C@H](C)NC(=O)[C@@H]1CSSC[C@H](NC(=O)[C@@H](N)CCCCNC(=O)CC[C@H](NC(=O)CC[C@H](NC(=O)CCCCCCCCCCCCCCCCCCC(=O)O)C(=O)O)C(=O)O)C(=O)N[C@@H](CC(N)=O)C(=O)N[C@@H]([C@@H](C)O)C(=O)N[C@@H](C)C(=O)N[C@@H]([C@@H](C)O)C(=O)N1)[C@@H](C)O)C(=O)N1CCC[C@H]1C(=O)N[C@@H](CO)C(=O)N[C@@H](CO)C(=O)N[C@H](C(=O)N1CCC[C@H]1C(=O)N[C@H](C(=O)NCC(=O)N1CCC[C@H]1C(=O)N[C@@H](CCCNC(=N)N)C(=O)N[C@H](C(=O)N[C@@H](Cc1ccc(O)cc1)C(N)=O)[C@@H](C)O)C(C)C)[C@@H](C)O

- IC50 [1]: 0.288 nM
- IC50 (rat calcitonin receptor [2]): 21 nM
- Ratio rCT/rAmylin binding (rat calcitonin receptor [3]): 73
- Ratio hCT/hAmylin binding [4]: 27.3
Binder: K([γGlu-γGlu-C20 diacid])CNTATCATQRLAEFLRHSSPNFGAIPSSTNVGPHTY-NH2 (disulfide 2-7 (inferred))

From patent US20140087995A1 (published 2014)
